The results in this text go back to patent US20040162413A1 (published 2004).

What is called EC50 (read off the curve) is the concentration at which the effect is half-maximal. As a reminder, the Kd is the constant that tells how readily two partners part at equilibrium.

Experiment [1] concerns the target T1, human von Willebrand Factor (human, UniProt P04275 764-2813).
T1 construct: In the ELISA captured on plates by goat anti-human vWF; biotinylated in the plaque lift; also called vWF; human vWF
Put plainly: ELISA: human vWF captured on goat anti-human vWF coated plates, Fab dilutions, goat anti-human kappa alkaline phosphatase, O.D. 560 after 30 min. (In general: ELISA stands for enzyme-linked immunosorbent assay.)

For experiment [2], the target named is T2, CD40-Ig fusion protein (UniProt P25942 21-193).
T2 construct: also called CD40-Ig antigen; CD40 receptor; not shown: Ig part, not described; in the ELISA and capture lift it is detected with goat anti-mouse IgG2b conjugate
Briefly: SPR (BIAcore), CD40-Ig immobilised, purified Fab in solution. In general terms: Surface plasmon resonance follows binding to a sensor surface in real time, without labels.

Experiment [3] deals with T2, CD40-Ig fusion protein. Briefly: SPR (BIAcore), CD40-Ig immobilised.

T2 sequence (P25942 21-193): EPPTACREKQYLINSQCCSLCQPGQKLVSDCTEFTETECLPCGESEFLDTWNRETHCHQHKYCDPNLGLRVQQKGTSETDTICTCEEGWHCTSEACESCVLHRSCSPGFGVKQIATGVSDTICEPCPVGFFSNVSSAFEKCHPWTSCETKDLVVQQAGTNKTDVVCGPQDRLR

B1: anti-vWF combinatorial library clone C1 Fab (Fab, V domains shown)
VH: EVQLVESGGGLVQPGGSLRLSCAASGFSLGDYGVDWVRQAPGKGLEWVGMIWPDGSTDYNSALQSRFTISRDDSKNSLYLQMNSLKTEDTAVYYCARDPADYGNYNYALDYWGQGTTVTVS
VL: DIQMTQSPSSLSASVGDRVTITCSASQDINDYLNWYQQKPGKAPKLLIYNTSSLHSGVPSRFSGSGSGTDFTLTISSLQPEDFATYYCQQYEDLPWTFGGGTKVEIK
notes: Fab with human CL and CH1
As for B1, in experiment [1], the “EC50 (read off the curve)” value was ~0.02 µg/mL.

B2: anti-vWF combinatorial library clone C4 Fab (Fab, V domains shown)
VH: EVQLVESGGGLVQPGGSLRLSCAASGFSLGDYGVDWVRQAPGKGLEWVGMIWGDGSVDVNSALQSRFTISRDDSKNSLYLQMNSLKTEDTAVYYCARDPADYGNYNYALDYWGQGTTVTVS
VL: DIQMTQSPSSLSASVGDRVTITCSASQDINDYLNWYQQKPGKAPKLLIYGTSSLHSGVPSRFSGSGSGTDFTLTISSLQPEDFATYYCQQYEDLPWTFGGGTKVEIK
notes: Fab with human CL and CH1
B2: the “EC50 (read off the curve)” value in experiment [1] is ~0.02 µg/mL.

B3: NMC-4 antibody (parental/donor antibody) (antibody, V domains shown)
VH: VQLLESGPGLVAPSQSLSITCTVSGFSLTDYGVDWVRQPPGKGLEWLGMIWGDGSTDYNSALKSRLSITKDNSKSQVFLKMNSLQTDDTARYYCVRDPADYGNYDYALDYWGQGTSVTVS
VL: SSLSASLGDRVTISCSASQDINKYLNWYQQKPDGAVKLLIFYTSSLHSGVPSRFSGSGSGTDYSLTISNLEPEDIATYYCQQYEKLPWTFGGGTKLEVK
notes: also called parental/donor NMC-4 antibody
On to B3, for which the “EC50 (read off the curve)” value in experiment [1] is ~0.03 µg/mL.

B4: Y49K, derivative of clone CW43 made by site-directed mutagenesis (anti-CD40 Fab) (Fab, V domains shown)
VH: QVQLVQSGPELKKPGASVKVSCKASGYAFTTTGMQWVRQAPGQGLEWMGWINTHSGVPKYVEDFKGRFVFSLDTSVSTAYLQISSLKAEDTAVYFCARSGNGNYDLAYFRYWGQGTLVTVSS
VL: EIVLTQSPATLSLSPGERATLSCRASQSISDYLHWYQQKPGQAPRLLIKYASHSISGIPARFSGSGSGTDFTLTISSLEPEDFAVYYCQHGHSFPRTFGGGTKVEIK
notes: Fab, human constant regions; framework identical to clone 1H11; also called clone Y49K
Take B4: in the experiment with CD40-Ig fusion protein [2], the Kd came out at 53.4 nM. The “fold lower affinity against CW43” value in the experiment with CD40-Ig fusion protein [3] came out at 5 fold.

B5: chimeric anti-CD40 Fab (variable regions of murine mAb 40.2.220) (Fab, V domains shown)
VH: QIQLVQSGPELKKPGETVRISCKASGYAFTTTGMQWVQEMPGKGLKWIGWINTHSGVPKYVEDFKGRFAFSLETSANTAYLQISNLKNEDTATYFCVRSGNGNYDLAYFAYWGQGTLVTVSA
VL: DIVLTQSPATLSVTPGDRVSLSCRASQSISDYLHWYQQKSHESPRLLIKYASHSISGIPSRFSGSGSGSDFTLSINSVEPEDVGIYYCQHGHSFPRTFGGGTKLEIK
notes: Fab expressed in bacteria from vector M13IX104CS (human kappa and gamma 1 constant regions, terminal cysteines replaced by serine); purified Fabs carry a six-histidine tag at the C-terminus of the H chain; also called chimeric Fab; chimeric CD40
Turning to B5, the Kd in the experiment with CD40-Ig fusion protein [2] worked out at 48.3 nM.
